Consider four molecules from patent publication US20230071609A1 (Genentech, published 2023).

For one test, the target named is T1, APOL1 peptide aa 364-385 (human).
T1 peptide: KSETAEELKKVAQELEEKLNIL
The test can be described thus: overlapping ~20-mer peptides (SPR, western blot). How it is done: (§1) Following three TBST washes, anti-mouse (GE Healthcare NA931V, 1:3000) or anti-rabbit HRP (Jackson 711-036-152, 1:8000) was added as secondary antibody. After 1 h, membranes were washed and protein detected using ECL prime (Amersham RPN2232) exposed to MR film (Kodak). Anti-actin HRP-conjugated antibody (clone 13E5, Cell Signaling Technologies 5125S at 1:5000) or calnexin (Abcam Ab22595 at 1:1000) was used as a loading control. For peptide mapping, 2 μl of 1 mM peptides in DMSO were boiled in 5× sample buffer and loaded on 10% Tris-Glycine gel and run using MES buffer. Cell pellets of Sf9 lysates were lysed in native RIPA (NP-40) lysis buffer and run on 10% Tris-Glycine gels.
A 96×96 array-based SPR imaging system (Carterra USA) was used for epitope mapping of anti-ApoL1 monoclonal antibodies. Briefly, purified monoclonal hybridoma antibodies were diluted at 10 μg/ml in 10 mM sodium acetate buffer pH 4.5. Using amine coupling, antibodies were directly immobilized onto a SPR sensorprism CMD 200M chip (XanTec Bioanalytics, Germany) using a Continuous Flow Microspotter (Carterra, USA) to create an array of antibodies. After coupling, the antibodies were blocked with ethanolamine, and primed with running buffer (10 mM HEPES, pH 7.4, 150 mM NaCl, 3 mM EDTA, and 0.005% Tween 20). […]

Test [1] deals with T2, endogenous human APOL1 (wild-type immortalized podocytes; also JHH-1 cells, kidney and liver tissue) (human, UniProt O14791 28-398).
T2 construct: whole, on cells; Cell or tissue and permeabilization are told under assay; also called podocyte APOL1; endogenous APOL1
T2 sequence (looked up): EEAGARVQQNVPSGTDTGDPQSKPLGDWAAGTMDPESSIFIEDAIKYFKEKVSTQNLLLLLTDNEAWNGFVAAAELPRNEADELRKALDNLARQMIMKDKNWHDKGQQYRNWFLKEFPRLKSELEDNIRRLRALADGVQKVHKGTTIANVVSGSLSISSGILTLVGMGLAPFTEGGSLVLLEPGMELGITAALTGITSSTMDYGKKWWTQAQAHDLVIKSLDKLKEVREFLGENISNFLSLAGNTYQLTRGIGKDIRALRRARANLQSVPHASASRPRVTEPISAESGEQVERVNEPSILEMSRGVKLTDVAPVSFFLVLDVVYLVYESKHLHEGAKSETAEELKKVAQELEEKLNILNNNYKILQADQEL
The test is described as follows: summary of the Examples: podocyte flow cytometry. How it is done: (§2) Cells were harvested with 5 mM EDTA in PBS, washed once with growth media and twice with PBS. Approximately 0.5×10⁶/m1 of cells resuspended in PBS were incubated with anti-APOL1 antibodies for 1 h on ice. Following two PBS washes, 2 μg/ml of Alexa488 anti-mouse or anti-rabbit (Invitrogen A11029 and A21206, respectively) was used for 1 h on ice for detection. Cells were washed twice in PBS and resuspended in PBS with 1 μg/ml propidium iodide. Signals were read in a FACSCalibur3 (Becton Dickinson), with the exception of FIG. 8A and FIG. 14, which used a FACSCelesta, and data was analyzed using FlowJo v8.4.5. Mean fluorescence intensities were plotted in PRISM v7 after subtraction of secondary antibody alone background. For low pH experiments, cells were incubated with the antibodies in the presence of PBS pH 7.0 or PBS pH 5.5 for an hour on ice and detected with secondary antibodies at neutral pH.
For orientation: Flow cytometry measures light scatter and fluorescence of single cells or particles in a stream.

In test [2] the target is T3, APOL1-G2 (deletion of N388 and Y389) (human, UniProt O14791 29-398).
T3 construct: expressed in CHO cells (flow cytometry, lysates), COS cells and podocytes; also called iAPOL1-G2; APOL-G2
T3 sequence: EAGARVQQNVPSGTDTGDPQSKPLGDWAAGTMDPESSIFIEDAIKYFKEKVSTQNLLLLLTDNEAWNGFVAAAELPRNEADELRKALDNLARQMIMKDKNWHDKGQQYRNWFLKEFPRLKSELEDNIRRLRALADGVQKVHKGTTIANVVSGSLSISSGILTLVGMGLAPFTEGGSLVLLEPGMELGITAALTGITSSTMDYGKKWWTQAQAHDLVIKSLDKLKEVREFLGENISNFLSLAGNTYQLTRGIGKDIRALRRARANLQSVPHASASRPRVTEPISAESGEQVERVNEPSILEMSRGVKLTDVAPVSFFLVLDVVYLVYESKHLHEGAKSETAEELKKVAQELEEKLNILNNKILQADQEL
The test is described as follows: flow cytometry, live CHO cells expressing full length native iAPOL1-G2.

For test [3], the target named is T4, APOL1 very C-terminal peptide aa 376-398 (human).
T4 peptide: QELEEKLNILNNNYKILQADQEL
The test is described as follows: overlapping ~20-mer peptides (SPR, western blot); antibody named in paragraph 192. Here is the method: as §1
A 96×96 array-based SPR imaging system (Carterra USA) was used for epitope mapping of anti-ApoL1 monoclonal antibodies. Briefly, purified monoclonal hybridoma antibodies were diluted at 10 μg/ml in 10 mM sodium acetate buffer pH 4.5. Using amine coupling, antibodies were directly immobilized onto a SPR sensorprism CMD 200M chip (XanTec Bioanalytics, Germany) using a Continuous Flow Microspotter (Carterra, USA) to create an array of antibodies. After coupling, the antibodies were blocked with ethanolamine, and primed with running buffer (10 mM HEPES, pH 7.4, 150 mM NaCl, 3 mM EDTA, and 0.005% Tween 20). Epitope mapping was performed by flowing 100 nM of different peptides of APOL1 across the immobilized anti-APOL1 antibodies on the biosensor chip at 25° C. in a running buffer of 10 mM HEPES, pH 7.4, 150 mM NaCl, 3 mM EDTA, and 0.005% Tween 20. After each flow through of the APOL1 peptide, the chip surface was regenerated using 10 mM glycine, pH 2.0.
For orientation: Immunoblotting shows a protein as a band on a membrane.

Test [4] deals with T5, circulating APOL1 in normal human serum (human, UniProt O14791 28-398).
T5 construct: mature; Serum of healthy volunteers; lipoprotein-associated; also called serum APOL1; HDL APOL1
T5 sequence (looked up): T2 sequence (looked up)
The test is described as follows: summary of the Examples: trypanolysis blocking as proxy for serum APOL1. Here is the method:
The trypanolysis assay used herein to text specificity of antibodies for serum APOL1 is as follows. Trypanosoma brucei brucei were obtained from ATCC and cultured in HMI-9 media containing IMDM (Genentech), heat-inactivated (56° C. for 30 min) FBS (Seradigm IXL9/06807/GEN), 1% serum plus (Sigma 14008C), HMI-9 (Genentech) and 1% hypoxanthine (Genentech). Trypanosome lysis was performed by treating 1×10⁵ Trypanosomes with serial dilutions of NHS or recombinant APOL1 for 16 h in a total of 100 μl. Live cell read out was done by the Alamar Blue assay as per the manufacturer's protocol, (Thermo Fisher, DAL1100). Briefly 10 μl of Alamar Blue was added to each well, incubated at 37° C. for 4 h. Red fluorescence, indicating live trypanosomes, was measured on a SpectraMax® fluorimeter powered by SoftMAX® PRO with excitation at 530 nm and emission 590 nm. For the antibody blocking assay, 1% normal human serum was preincubated with 1-10 μg/ml of anti-APOL1 antibody or media at room temperature for 20 minutes followed by addition of trypanosomes. After 16 h, the Alamar Blue assay was performed as above and background values for media only were subtracted and % blocking calculated by normalizing to no antibody control.
Trypanosoma brucei brucei were obtained under MTA from ATCC and cultured in HMI-9 media containing IMDM (Genentech), heat-inactivated (56° C. for 30 min) FBS (Seradigm IXL9/06807/GEN), 1% serum plus (Sigma 14008C), HMI-9 (Genentech) and 1% hypoxanthine (Genentech). Trypanosome lysis was performed by treating 1×10⁵ Trypanosomes with serial dilutions of NHS or recombinant APOL1 for 16 h in a total of 100 μl. Live cell read out was done by the Alamar Blue assay as per the manufacturer's protocol (30) (Thermo Fisher, DAL1100). Briefly 10 μl of Alamar Blue was added to each well, incubated at 37° C. for 4 h. Red fluorescence, indicating live trypanosomes, was measured on a SpectraMax fluorimeter powered by SoftMAX PRO with excitation at 530 nm and emission 590 nm. For the antibody blocking assay, 1% normal human serum was preincubated with 1-10 μg/ml of anti-APOL1 antibody or media at room temperature for 20 mins followed by addition of trypanosomes.

Test [5] deals with T2, endogenous human APOL1 (wild-type …). The test can be described thus: flow cytometry, live WT and iAPOL1-G0 podocytes. Here is the method: as §2
More importantly, there were also differential APOL1 accessibilities between serum APOL1 and kidney disease-relevant podocytes (FIG. 18B). Some antibodies bound surface APOL1 in WT and iAPOL1 podocytes (FIG. 6A, 6B), but not circulating APOL1 (as judged by lack of trypanolytic blockade, FIG. 6C) and vice versa. […] Conversely, 3.3B6 and 4.17A5 were among the top trypanolytic blockers, but recognized the podocyte surface relatively weakly. […]

B1: antibody 4.29C4 (antibody, V domains shown)
VH: QVQLQQPGAELVRPGASVKLSCKASGYSFANYWMNWVKQRPGQGLEWIGMIHPSDSESRLSQRFKDKATLTVDKSSSTAYMQLNSPTSEDSAVYYCARLDYWGQGTSVTVSS
VL: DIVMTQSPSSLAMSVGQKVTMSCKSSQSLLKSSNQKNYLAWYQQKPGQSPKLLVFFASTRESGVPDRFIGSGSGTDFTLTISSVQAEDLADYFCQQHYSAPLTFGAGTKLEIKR
notes: Mouse mAb, cloned as murine IgG2a LALAPG
Take B1: the binding result with APOL1 peptide aa 364-385 is listed as “binds”.

B2: antibody 4.11A10 (antibody, V domains shown)
VH: EVQLQQSGPELVKTGASVKISCKASGYSFTGYFMHWVKQSHGKSLEWIGYISCYNGVSVYNQRFKGKATFTIDTSSSTAYMQFNSLTSEDSAVYYCARDVLRYPRYAVDYWGQGTSVTVSS
VL: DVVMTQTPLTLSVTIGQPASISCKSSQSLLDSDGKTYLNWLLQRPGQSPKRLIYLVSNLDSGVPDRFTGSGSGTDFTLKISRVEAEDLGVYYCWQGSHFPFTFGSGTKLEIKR
notes: as for B1
Take B2: the binding result is reported as “binds” in test [1], “no binding (tested: 5 µg/ml)” in test [2], “binds” in test [3] and “binds” in test [4].

B3: antibody 4.11H11 (antibody, V domains shown)
VH: EVQVQQSGPELVKPGASMKISCKASGYSFIVYTMNWVKQSHGKNLEWIGLINPYNGGTIYNRKFKGKATLTVDKSSSTAYLELLSLTSEDSAVYYCARGALYRYEGAMDYWGQGTSVIVSS
VL: QIVLSQFPAILSASPGEKVTMTCRASSSVIYVHWYQQKPGSSPKPWIYATSNLASGVPARFSGSGSGTSHSLTISRLEAEDTATYYCQQWSSNPLTFGAGTKLEIKR
notes: as for B1
For the molecule B3, the binding result in test [1] is “binds”; in test [2], “no binding (tested: 5 µg/ml)”; in test [3], “binds”; in test [4] it was “binds”.

B4: antibody 3.3B6 (antibody, V domains shown)
VH: QVQLQQSGAELARPGASVKLSCKASGYTFTSHWMQWLKQRPGQGLEWIGAIYPGDGDTKFTQKFKDKATLTADKSSTTAYMQLSSLASEDSAVYYCARENLYGYYFDYWGQGTTLTVSS
VL: QAVVTQESALTTSPGETVTLTCRSSTGAVTSGNFANWVQEKPDHLFTGLIGGADNRAPGVPARFSGSLIGDKAALIITGAQTEDEAIYFCALWYSDHWVFGGGTKLTVLG
notes: as for B1
Take B4: the binding result in test [5] is “binds”.
